Each substance was assayed against human recombinant RetGC1 (retinal membrane guanylyl cyclase 1) (human) (UniProt Q02846).
Sequence of UniProt Q02846 (Q02846 52-1103): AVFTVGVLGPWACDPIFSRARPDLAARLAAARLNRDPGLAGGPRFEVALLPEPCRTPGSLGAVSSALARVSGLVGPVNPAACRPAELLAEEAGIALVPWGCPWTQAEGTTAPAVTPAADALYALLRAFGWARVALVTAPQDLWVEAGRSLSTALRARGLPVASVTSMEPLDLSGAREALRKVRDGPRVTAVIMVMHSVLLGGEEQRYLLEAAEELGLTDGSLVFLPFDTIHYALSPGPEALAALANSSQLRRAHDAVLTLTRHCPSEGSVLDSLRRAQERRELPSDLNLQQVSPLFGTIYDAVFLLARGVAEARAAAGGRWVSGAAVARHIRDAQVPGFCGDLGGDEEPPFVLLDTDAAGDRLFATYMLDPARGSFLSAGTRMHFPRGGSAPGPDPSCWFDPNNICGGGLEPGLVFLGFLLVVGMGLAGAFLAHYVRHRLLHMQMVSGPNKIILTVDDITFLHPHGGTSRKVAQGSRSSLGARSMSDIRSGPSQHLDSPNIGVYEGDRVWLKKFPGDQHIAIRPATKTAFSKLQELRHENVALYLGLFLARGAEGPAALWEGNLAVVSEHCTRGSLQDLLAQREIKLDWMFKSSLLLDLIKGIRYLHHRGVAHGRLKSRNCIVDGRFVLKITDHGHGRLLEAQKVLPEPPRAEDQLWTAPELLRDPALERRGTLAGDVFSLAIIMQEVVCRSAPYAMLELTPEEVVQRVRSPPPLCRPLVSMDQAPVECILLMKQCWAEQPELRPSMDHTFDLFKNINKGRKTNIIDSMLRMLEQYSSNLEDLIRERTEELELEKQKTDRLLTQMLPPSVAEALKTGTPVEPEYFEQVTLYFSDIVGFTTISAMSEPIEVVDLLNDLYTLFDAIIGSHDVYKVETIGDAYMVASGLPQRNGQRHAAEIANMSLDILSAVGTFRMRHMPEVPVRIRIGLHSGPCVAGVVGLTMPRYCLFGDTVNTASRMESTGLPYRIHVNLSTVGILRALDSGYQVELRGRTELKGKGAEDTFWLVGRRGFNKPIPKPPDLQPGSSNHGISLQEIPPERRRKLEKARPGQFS

Substance | RetGC1 activity left with 100 nM RD3, % of that without RD3 (1.5 uM GCAP1) [%]
RD3 3L→S5 deletion (from UniProt Q7Z3Z2 1-195) (natural protein) | 3.9
RD3 45RER47→45AAA47 (from UniProt Q7Z3Z2 1-195) (natural protein) | 17.9
RD3 50AVRK53→50KAIE53 (from UniProt Q7Z3Z2 1-195) (natural protein) | 12.4
RD3 77ERLQ80→77QLRE80 (from UniProt Q7Z3Z2 1-195) (natural protein) | 11.5
RD3 132EEE134→132QQQ134 (from UniProt Q7Z3Z2 1-195) (natural protein) | 11.8
RD3 137KLTRQ141→137QRKTL141 (from UniProt Q7Z3Z2 1-195) (natural protein) | 8.6
RD3 147RGSL150→147GRLS150 (from UniProt Q7Z3Z2 1-195) (natural protein) | 9.6
RD3 154KTRAR158→154ENSES158 (from UniProt Q7Z3Z2 1-195) (natural protein) | 7.5
RD3 164SDIRT168→164RSDTI168 (from UniProt Q7Z3Z2 1-195) (natural protein) | 9.5
RD3 171EDVERD176→171KKAKQR176 (from UniProt Q7Z3Z2 1-195) (natural protein) | 2.5
RD3 178PPP180→178AAA180 (from UniProt Q7Z3Z2 1-195) (natural protein) | 8.5
RD3 186SMP188→186PRS188 (from UniProt Q7Z3Z2 1-195) (natural protein) | 12.7
RD3 A22E (from UniProt Q7Z3Z2 1-195) (natural protein) | 6.4
RD3 A22Y (from UniProt Q7Z3Z2 1-195) (natural protein) | 14.4
RD3 A64R (from UniProt Q7Z3Z2 1-195) (natural protein) | 15
RD3 A105R (from UniProt Q7Z3Z2 1-195) (natural protein) | 8.5
RD3 A105Y (from UniProt Q7Z3Z2 1-195) (natural protein) | 17.9
RD3 A135R (from UniProt Q7Z3Z2 1-195) (natural protein) | 9.1
RD3 A151R/T152Q (from UniProt Q7Z3Z2 1-195) (natural protein) | 7.1
RD3 C55D (from UniProt Q7Z3Z2 1-195) (natural protein) | 6.9
RD3 D72R (from UniProt Q7Z3Z2 1-195) (natural protein) | 5.5
RD3 D83R (from UniProt Q7Z3Z2 1-195) (natural protein) | 7.2
RD3 E23R (from UniProt Q7Z3Z2 1-195) (natural protein) | 8.2
RD3 E27R (from UniProt Q7Z3Z2 1-195) (natural protein) | 6.6

Substance | RetGC1 activity left with 100 nM RD3, % of that without RD3 (1.5 uM GCAP1) [%]
RD3 E39R (from UniProt Q7Z3Z2 1-195) (natural protein) | 6.6
RD3 E41A (from UniProt Q7Z3Z2 1-195) (natural protein) | 10.3
RD3 E41R (from UniProt Q7Z3Z2 1-195) (natural protein) | 12.6
RD3 E108K (from UniProt Q7Z3Z2 1-195) (natural protein) | 7.1
RD3 E110R (from UniProt Q7Z3Z2 1-195) (natural protein) | 9.6
RD3 E127R/R128E (from UniProt Q7Z3Z2 1-195) (natural protein) | 10.1
RD3 F153R (from UniProt Q7Z3Z2 1-195) (natural protein) | 7.3
RD3 G35Y (from UniProt Q7Z3Z2 1-195) (natural protein) | 5.5
RD3 I76R (from UniProt Q7Z3Z2 1-195) (natural protein) | 7.5
RD3 I97Y (from UniProt Q7Z3Z2 1-195) (natural protein) | 55
RD3 L98R (from UniProt Q7Z3Z2 1-195) (natural protein) | 5.9
RD3 L98Y (from UniProt Q7Z3Z2 1-195) (natural protein) | 9.9
RD3 L103R (from UniProt Q7Z3Z2 1-195) (natural protein) | 12.1
RD3 L144W (from UniProt Q7Z3Z2 1-195) (natural protein) | 7.3
RD3 M24D (from UniProt Q7Z3Z2 1-195) (natural protein) | 10.9
RD3 M31R (from UniProt Q7Z3Z2 1-195) (natural protein) | 6.6
RD3 P67D (from UniProt Q7Z3Z2 1-195) (natural protein) | 11
RD3 P67G (from UniProt Q7Z3Z2 1-195) (natural protein) | 11.3
RD3 P75R (from UniProt Q7Z3Z2 1-195) (natural protein) | 10.7
RD3 P90A (from UniProt Q7Z3Z2 1-195) (natural protein) | 24.2
RD3 Q43R (from UniProt Q7Z3Z2 1-195) (natural protein) | 5.3
RD3 Q112E/E113Q (from UniProt Q7Z3Z2 1-195) (natural protein) | 9.2
RD3 Q116Y (from UniProt Q7Z3Z2 1-195) (natural protein) | 10.8
RD3 Q123E/E124Q (from UniProt Q7Z3Z2 1-195) (natural protein) | 11.9

Substance | RetGC1 activity left with 100 nM RD3, % of that without RD3 (1.5 uM GCAP1) [%]
RD3 R38S (from UniProt Q7Z3Z2 1-195) (natural protein) | 18.2
RD3 R42E (from UniProt Q7Z3Z2 1-195) (natural protein) | 14.5
RD3 R68D (from UniProt Q7Z3Z2 1-195) (natural protein) | 12.4
RD3 R119S (from UniProt Q7Z3Z2 1-195) (natural protein) | 12
RD3 R145D (from UniProt Q7Z3Z2 1-195) (natural protein) | 9.2
RD3 S20Y/P21R (from UniProt Q7Z3Z2 1-195) (natural protein) | 11.5
RD3 S65Y (from UniProt Q7Z3Z2 1-195) (natural protein) | 10.8
RD3 S69Y (from UniProt Q7Z3Z2 1-195) (natural protein) | 9
RD3 S91Y (from UniProt Q7Z3Z2 1-195) (natural protein) | 13.3
RD3 S120Y (from UniProt Q7Z3Z2 1-195) (natural protein) | 8.2
RD3 S143Y (from UniProt Q7Z3Z2 1-195) (natural protein) | 9.1
RD3 T18D/R19A (from UniProt Q7Z3Z2 1-195) (natural protein) | 14.9
RD3 T28R (from UniProt Q7Z3Z2 1-195) (natural protein) | 15.3
RD3 T34Q (from UniProt Q7Z3Z2 1-195) (natural protein) | 8.1
RD3 T56H (from UniProt Q7Z3Z2 1-195) (natural protein) | 9.2
RD3 T66K (from UniProt Q7Z3Z2 1-195) (natural protein) | 7.3
RD3 T70R (from UniProt Q7Z3Z2 1-195) (natural protein) | 8.2
RD3 V58Q (from UniProt Q7Z3Z2 1-195) (natural protein) | 16.7
RD3 V86R/K87A (from UniProt Q7Z3Z2 1-195) (natural protein) | 7.1
RD3 W6L (from UniProt Q7Z3Z2 1-195) (natural protein) | 11.1
RD3 W142A (from UniProt Q7Z3Z2 1-195) (natural protein) | 7.9
RD3 Y71E (from UniProt Q7Z3Z2 1-195) (natural protein) | 16.4
RD3 Y71G (from UniProt Q7Z3Z2 1-195) (natural protein) | 15.4

Biological target: human recombinant RetGC1 (retinal membrane guanylyl cyclase 1) (human) (UniProt Q02846)
Remark: another data set of the same source

Substance | IC50 of inhibition of GCAP1-activated RetGC1 activity [nM]
RD3 A105R (from UniProt Q7Z3Z2 1-195) (natural protein) | 3.6
RD3 A105Y (from UniProt Q7Z3Z2 1-195) (natural protein) | 16.7
RD3 R101A/Q102L (from UniProt Q7Z3Z2 1-195) (natural protein) | 4460

From article PMC7397094
